Earlier results, collected in patent publication US7951914B2, “Genetically modified cyclic-nucleotide controlled ion channels” (Forschungszentrum Julich GmbH, priority 2001, dated 2011).

Target: T1, CNG channels comprising the α3 subunits from the epithelium of the nose (Bos taurus, UniProt Q03041)
T1 sequence (Q03041 1-663): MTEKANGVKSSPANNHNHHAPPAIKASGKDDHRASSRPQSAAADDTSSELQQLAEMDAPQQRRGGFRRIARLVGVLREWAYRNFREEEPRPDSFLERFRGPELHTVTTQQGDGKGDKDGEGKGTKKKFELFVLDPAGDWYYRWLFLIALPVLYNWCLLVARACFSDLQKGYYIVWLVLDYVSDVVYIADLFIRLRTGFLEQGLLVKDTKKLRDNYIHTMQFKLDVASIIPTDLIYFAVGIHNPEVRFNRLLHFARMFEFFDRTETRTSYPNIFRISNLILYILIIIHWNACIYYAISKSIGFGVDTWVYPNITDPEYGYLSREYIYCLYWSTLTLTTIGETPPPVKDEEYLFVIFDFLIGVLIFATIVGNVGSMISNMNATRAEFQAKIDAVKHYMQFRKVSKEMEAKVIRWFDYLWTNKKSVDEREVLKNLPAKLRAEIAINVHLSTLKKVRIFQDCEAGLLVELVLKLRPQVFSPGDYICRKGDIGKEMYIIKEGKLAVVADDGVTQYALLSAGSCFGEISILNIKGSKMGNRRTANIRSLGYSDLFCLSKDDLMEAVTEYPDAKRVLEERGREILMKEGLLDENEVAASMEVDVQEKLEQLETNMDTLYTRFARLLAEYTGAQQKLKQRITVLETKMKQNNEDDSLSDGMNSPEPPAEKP
Settings: Dhallan 1990; Ludwig 1990; cited from earlier work

B1: CNG channels comprising the α3 subunits: prior-art CNG channels of α3 subunits from the epithelium of the nose (protein, UniProt Q16280 1-664, looked up)
Cyclic nucleotide-gated …: MTEKTNGVKSSPANNHNHHAPPAIKANGKDDHRTSSRPHSAADDDTSSELQRLADVDAPQQGRSGFRRIVRLVGIIREWANKNFREEEPRPDSFLERFRGPELQTVTTQEGDGKGDKDGEDKGTKKKFELFVLDPAGDWYYCWLFVIAMPVLYNWCLLVARACFSDLQKGYYLVWLVLDYVSDVVYIADLFIRLRTGFLEQGLLVKDTKKLRDNYIHTLQFKLDVASIIPTDLIYFAVDIHSPEVRFNRLLHFARMFEFFDRTETRTNYPNIFRISNLVLYILVIIHWNACIYYAISKSIGFGVDTWVYPNITDPEYGYLAREYIYCLYWSTLTLTTIGETPPPVKDEEYLFVIFDFLIGVLIFATIVGNVGSMISNMNATRAEFQAKIDAVKHYMQFRKVSKGMEAKVIRWFDYLWTNKKTVDEREILKNLPAKLRAEIAINVHLSTLKKVRIFHDCEAGLLVELVLKLRPQVFSPGDYICRKGDIGKEMYIIKEGKLAVVADDGVTQYALLSAGSCFGEISILNIKGSKMGNRRTANIRSLGYSDLFCLSKDDLMEAVTEYPDAKKVLEERGREILMKEGLLDENEVATSMEVDVQEKLGQLETNMETLYTRFGRLLAEYTGAQQKLKQRITVLETKMKQNNEDDYLSDGMNSPELAAADEP
cGMP concentration that activates the channels: 2 µM
